Laboratory results taken from IntAct's records for PubMed 11967127.

B1: Disabled homolog 2 (Mus musculus), P98078 (parent)
chain: MSNEVETSTTNGQPDQQAAPKAPSKKEKKKGSEKTDEYLLARFKGDGVKYKAKLIGIDDVPDARGDKMSQDSMMKLKGMAAAGRSQGQHKQRIWVNISLSGIKIIDEKTGVIEHEHPVNKISFIARDVTDNRAFGYVCGGEGQHQFFAIKTGQQAEPLVVDLKDLFQVIYNVKKKEEDKKKVEEANKAEENGSEALMTLDDQANKLKLGVDQMDLFGDMSTPPDLNSPTESKDILLVDLNSEIDTNQNSLRENPFLTNGVTSCSLPRPKPQASFLPENAFSANLNFFPTPNPDPFRDDPFAQPDQSAPSSFDSLTSPDQKKASLSSSSTPQSKGPLNGDTDYFGQQFDQLSNRTGKPEAQGGPWPYPSSQTQQAVRTQNGVSEREQNGFHIKSSPNPFVGSPPKGLSVPNGVKQDLESSVQSSAHDSIAIIPPPQSTKPGRGRRTAKSSANDLLASDIFASEPPGQMSPTGQPAVPQSNFLDLFKGNAPAPVGPLVGLGTVPVTPPQAGPWTPVVYSPSTTVVPGAIISGQPPSFRQPLVFGTTPAVQVWNQSPSFATPASPPPPTVWCPTTSVAPNAWSSTSPLGNPFQSNNIFPPPTMSTQSSPQPMMSSVLATPPQPPPRNGPLKDIPSDAFTGLDPLGDKEVKEVKEMFKDFQLRQPPLVPSRKGETPPSGTSSAFSSYFNNKVGIPQEHVDHDDFDANQLLNKINEPPKPAPRQGVLLGTKSADNSLENPFSKGFSSSNPSVVSQPASSDPHRSPFGNPFA
B2: Disabled homolog 1 (Mus musculus), P97318 (parent)
chain: MSTETELQVAVKTSAKKDSRKKGQDRSEATLIKRFKGEGVRYKAKLIGIDEVSAARGDKLCQDSMMKLKGVVAGARSKGEHKQKIFLTISFGGIKIFDEKTGALQHHHAVHEISYIAKDITDHRAFGYVCGKEGNHRFVAIKTAQAAEPVILDLRDLFQLIYELKQREELEKKAQKDKQCEQAVYQTILEEDVEDPVYQYIVFEAGHEPIRDPETEENIYQVPTSQKKEGVYDVPKSQPNSQPLEDFESRFAAATPNRNLSMDFDELLEATKVSAVTQLELFGDMSTPPDITSPPTPATPGDAFLPSSSQTLPGSADVFGSMSFGTAAVPSGYVAMGAVLPSFWGQQPLVQQQIAMGAQPPVAQVIPGAQPIAWGQPGLFPATQQAWPTVAGQFPPAAFMPTQTVMPLAAAMFQGPLTPLATVPGTNDSARSSPQSDKPRQKMGKESFKDFQMVQPPPVPSRKPDQPSLTCTSEAFSSYFNKVGVAQDTDDCDDFDISQLNLTPVTSTTPSTNSPPTPAPRQSSPSKSSASHVSDPTADDIFEEGFESPSKSEEQEAPDGSQASSTSDPFGEPSGEPSGDNISPQDGS

Variants of: B1
Settings: with myo6_chick MYO6, Q9I8D1
Target sequence in this assay (Q9I8D1 whole entry): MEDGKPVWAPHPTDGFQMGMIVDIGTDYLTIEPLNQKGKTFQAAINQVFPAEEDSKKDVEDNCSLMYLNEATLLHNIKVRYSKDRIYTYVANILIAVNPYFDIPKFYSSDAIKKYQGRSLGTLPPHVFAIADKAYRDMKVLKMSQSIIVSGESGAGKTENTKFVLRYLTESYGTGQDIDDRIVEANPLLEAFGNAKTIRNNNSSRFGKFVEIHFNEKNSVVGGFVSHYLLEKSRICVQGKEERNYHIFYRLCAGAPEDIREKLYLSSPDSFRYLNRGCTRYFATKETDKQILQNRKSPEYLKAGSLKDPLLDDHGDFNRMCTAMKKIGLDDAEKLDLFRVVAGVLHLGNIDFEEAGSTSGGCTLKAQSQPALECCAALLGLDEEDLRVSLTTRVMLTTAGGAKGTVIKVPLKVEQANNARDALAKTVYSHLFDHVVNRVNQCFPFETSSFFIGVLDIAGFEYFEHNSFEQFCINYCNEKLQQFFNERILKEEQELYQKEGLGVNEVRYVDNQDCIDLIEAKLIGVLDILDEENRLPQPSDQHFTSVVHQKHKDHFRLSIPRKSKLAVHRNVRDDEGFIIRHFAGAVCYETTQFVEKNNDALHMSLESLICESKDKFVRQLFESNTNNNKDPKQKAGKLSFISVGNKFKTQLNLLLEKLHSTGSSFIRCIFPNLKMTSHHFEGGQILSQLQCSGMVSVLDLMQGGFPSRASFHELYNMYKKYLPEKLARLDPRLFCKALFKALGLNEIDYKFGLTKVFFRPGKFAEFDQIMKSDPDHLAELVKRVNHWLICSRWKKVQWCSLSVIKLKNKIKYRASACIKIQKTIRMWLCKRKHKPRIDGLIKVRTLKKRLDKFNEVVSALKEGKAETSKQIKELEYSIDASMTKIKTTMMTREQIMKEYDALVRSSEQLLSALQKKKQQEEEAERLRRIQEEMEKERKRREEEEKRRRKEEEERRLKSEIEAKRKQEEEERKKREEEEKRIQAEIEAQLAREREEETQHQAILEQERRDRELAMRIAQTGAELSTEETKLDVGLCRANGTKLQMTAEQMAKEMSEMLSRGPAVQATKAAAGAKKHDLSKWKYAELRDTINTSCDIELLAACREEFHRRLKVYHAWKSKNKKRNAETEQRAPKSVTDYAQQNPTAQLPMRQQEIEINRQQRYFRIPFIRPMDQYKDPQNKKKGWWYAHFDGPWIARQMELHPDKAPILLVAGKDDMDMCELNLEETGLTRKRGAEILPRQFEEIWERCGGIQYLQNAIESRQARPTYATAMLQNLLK

Variant | effect of a mutation on the interaction
S682A;Y683A;F684A | disrupting interaction
D699A;F700A;D701A | decreasing interaction

Variants of: B2
Settings: with myo6_chick MYO6, Q9I8D1
Target sequence in this assay (Q9I8D1 whole entry): as above

Variant | effect of a mutation on the interaction
S478A;Y479A;F480A | decreasing interaction
